Test results as given in patent publication US20240116985A1 (published 2024).
Starred links: 1 amine or outer side, 2 acyl side, 3 side chain; linkers in the order of their positions; H or OH if unused. Positions of bridges follow the written chain, without caps; N, C: chain ends. Non-standard residues stand in square brackets, D forms with d. Primed or numbered codes have the meaning given here. PyrS2″ = (S)-3-amino-1-((pent-4-en-1-yloxy)carbonyl)pyrrolidine-3-carboxylic acid (stapling residue), C=CCCCOC(=O)N1CC[C@@](N[*:1])(C(=O)[*:2])C1; B5(17) = 2,2-bis(4-pentenyl)glycine = 2-amino-2-(pent-4-en-1-yl)hept-6-enoic acid, stitching residue, C=CCCCC(CCCC=C)(N[*:1])C(=O)[*:2]; B5(4) = 2,2-bis(4-pentenyl)glycine = 2-amino-2-(pent-4-en-1-yl)hept-6-enoic acid (stitching residue), C=CCCCC(CCCC=C)(N[*:1])C(=O)[*:2]; B5(5) = 2,2-bis(4-pentenyl)glycine, 2-amino-2-(pent-4-en-1-yl)hept-6-enoic acid (stitching residue), C=CCCCC(CCCC=C)(N[*:1])C(=O)[*:2]; TfeGA = (S)-2-amino-3-((carboxymethyl)(2,2,2-trifluoroethyl)amino)propanoic acid, O=C([C@H](CN(CC(=O)[*:3])CC(F)(F)F)N[*:1])[*:2]; 5iPr3COOHF = (S)-3-(2-amino-2-carboxyethyl)-5-isopropylbenzoic acid, CC(C)c1cc(C[C@H](N[*:1])C(=O)[*:2])cc(C(=O)[*:3])c1; B5(22) = 2-amino-2-(pent-4-en-1-yl)hept-6-enoic acid (two alkene side chains), C=CCCCC(CCCC=C)(N[*:1])C(=O)[*:2]; MorphAsn = (S)-2-amino-4-morpholino-4-oxobutanoic acid, O=C(C[C@H](N[*:1])C(=O)[*:2])N1CCOCC1; B5(3) = 2,2-bis(4-pentenyl)glycine (stitching residue), C=CCCCC(CCCC=C)(N[*:1])C(=O)[*:2]; 2F3MeF = Cc1cccc(C[C@H](N[*:1])C(=O)[*:2])c1F; Phe(2-CF3) = N[C@@H](Cc1ccccc1C(F)(F)F)C(=O)O; Phe(3-Cl) = N[C@@H](Cc1cccc(Cl)c1)C(=O)O; Phe(2-Br) = N[C@@H](Cc1ccccc1Br)C(=O)O; Phe(2-Cl) = N[C@@H](Cc1ccccc1Cl)C(=O)O; Bta = N[C@@H](Cc1csc2ccccc12)C(=O)O; Lys(iPr) = CC(C)NCCCC[C@H](N)C(=O)O; αAllylPro = C=CC[C@@]1(C(=O)O)CCCN1; tBuAla = CC(C)(C)C[C@H](N)C(=O)O; 3Thi = N[C@@H](Cc1ccsc1)C(=O)O; Cha = N[C@@H](CC1CCCCC1)C(=O)O; S8 = C=CCCCCCC[C@](C)(N)C(=O)O; hLeu = CC(C)CC[C@H](N)C(=O)O; 34ClF = not defined here; Aib = CC(C)(N)C(=O)O

T1: B-cat-Halo (UniProt P35222 1-781)
T1 sequence (looked up): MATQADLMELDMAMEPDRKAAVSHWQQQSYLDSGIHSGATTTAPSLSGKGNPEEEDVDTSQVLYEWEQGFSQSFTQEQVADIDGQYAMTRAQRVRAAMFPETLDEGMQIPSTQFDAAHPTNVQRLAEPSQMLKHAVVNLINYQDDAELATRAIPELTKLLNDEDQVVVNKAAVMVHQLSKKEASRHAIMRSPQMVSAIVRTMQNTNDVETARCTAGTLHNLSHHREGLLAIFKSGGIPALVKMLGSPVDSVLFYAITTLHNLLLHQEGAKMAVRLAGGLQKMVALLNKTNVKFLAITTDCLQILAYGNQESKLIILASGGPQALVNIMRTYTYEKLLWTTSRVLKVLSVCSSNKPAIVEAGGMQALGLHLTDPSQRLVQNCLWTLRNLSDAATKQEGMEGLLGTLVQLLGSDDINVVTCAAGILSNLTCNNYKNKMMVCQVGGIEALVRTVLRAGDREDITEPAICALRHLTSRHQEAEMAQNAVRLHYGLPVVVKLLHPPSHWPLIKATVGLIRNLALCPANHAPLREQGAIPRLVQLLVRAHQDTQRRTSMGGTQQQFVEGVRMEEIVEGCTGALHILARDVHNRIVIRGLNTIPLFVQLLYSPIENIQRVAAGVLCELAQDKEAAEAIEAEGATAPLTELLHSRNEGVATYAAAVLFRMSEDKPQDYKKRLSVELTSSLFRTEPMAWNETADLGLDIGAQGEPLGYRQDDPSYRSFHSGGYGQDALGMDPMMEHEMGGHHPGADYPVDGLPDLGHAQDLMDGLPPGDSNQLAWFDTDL

T2: B-cat-Halo (beta-catenin HaloTag NanoBRET construct expressed in HEK293 cells) (UniProt P35222 1-781)
T2 sequence (looked up): T1 sequence (looked up)

T3: B-cat-Halo (beta-catenin HaloTag NanoBRET construct expressed in HEK293 cells) (UniProt P35222 1-781, HaloTag NanoBRET 618 Ligand bound to the HaloTag)
T3 sequence (looked up): T1 sequence (looked up)

T4: full-length beta-Catenin (Uniprot ID P35222) (Homo sapiens (Human), UniProt P35222 1-781)
T4 construct: also called bCat; B-Catenin
T4 sequence: T1 sequence (looked up)

B1: I-2417 (peptide)
peptide: Ac-[αAllylPro]D[tBuAla][B5(5)]NT[Aib]AFN[PyrS2″][3Thi][34ClF]Q-NH2
modifications: staple 1-4, 4-11; reading uncertain; also: printed as Ac-PL3-Asp-Npg-B5-Asn-Thr-Aib-Ala-Phe-Asn-PyrS2-3Thi-34C1F-Gln-NH2
B2: I-550 (peptide)
peptide: XDIXDDAAFNXFXQ
modifications: not fully specified; N-terminal Ac; PL3 at 1; B5 at 4; S8 at 11; 2OMeF at 12; BztA at 13; C-terminal NH2; staples PL3(1)-B5(4) and B5(4)-S8(11) by olefin metathesis

These binders were tested against T1, B-cat-Halo (assay: cell-based or functional assay).

| NanoBRET Abs IC50 | Binder |
| --- | --- |
| > 20 µM | Ac-[αAllylPro]N[Cha][B5(5)]DQ[Lys(iPr)]AFL[PyrS2″]F[Bta][MorphAsn]-NH2 (staple 1-4, 4-11) [I-2426] |
| 4.5 µM | Ac-[αAllylPro]D[tBuAla][B5(5)]D[5iPr3COOHF]AAFL[PyrS2″][Phe(2-CF3)][Bta]Q-NH2 (staple 1-4, 4-11) [I-2430] |
| 21.6 µM | B1 |
| > 20 µM | Ac-[αAllylPro]D[Cha][B5(5)]DQ[Lys(iPr)]AFL[PyrS2″]F[Bta]K-NH2 (staple 1-4, 4-11) [I-2429] |
| > 20 µM | Ac-[αAllylPro]N[Cha][B5(5)]DQQAFL[PyrS2″]F[Bta]K-NH2 (staple 1-4, 4-11) [I-2421] |

These binders were tested against T2, B-cat-Halo (beta-catenin HaloTag …) (assay: cell-based or functional assay).

| NanoBRET Abs IC50 | Binder |
| --- | --- |
| 16.9 µM | Ac-[αAllylPro]DI[B5(17)]DEAAFN[S8]F[Bta]Q-NH2 (staple 1-4, 4-11) [I-557] |
| 4.6 µM | Ac-[αAllylPro]D[tBuAla][B5(4)]DEAAFQ[S8]F[Bta]Q-NH2 (staple 1-4, 4-11) [I-544] |
| 17 µM | Ac-[αAllylPro]DL[B5(4)]DEAAFN[S8]F[Bta]H-NH2 (staple 1-4, 4-11) [I-543] |
| 15.6 µM | Ac-[αAllylPro]D[hLeu][B5(4)]DDAAFN[S8]F[Bta]Q-NH2 (staple 1-4, 4-11; not fully specified) [I-548] |
| 12.1 µM | Ac-[αAllylPro]D[tBuAla][B5(4)]DDAAFN[S8]F[Bta]Q-NH2 (staple 1-4, 4-11) [I-546] |
| 21.4 µM | B2 |
| 3.5 µM | Ac-[αAllylPro]D[hLeu][B5(4)]DEAAFQ[S8]F[Bta]Q-NH2 (staple 1-4, 4-11) [I-545] |

These binders were tested against T3, B-cat-Halo (beta-catenin HaloTag …) (assay: cell-based or functional assay).

| NanoBRET Abs IC50 | Binder |
| --- | --- |
| 19.2 µM | Ac-[αAllylPro]D[tBuAla][B5(22)]D[TfeGA]AAFN[S8][2F3MeF][Bta]Q-NH2 (staple 1-4, 4-11) [I-934] |
| 11.4 µM | Ac-[αAllylPro]D[tBuAla][B5(22)]D[TfeGA]AAFN[S8][Phe(2-Br)][Bta]Q-NH2 (staple 1-4, 4-11) [I-932] |
| 22.2 µM | Ac-[αAllylPro]D[tBuAla][B5(22)]D[TfeGA]AAFN[S8][Phe(3-Cl)][Bta]Q-NH2 (staple 1-4, 4-11) [I-933] |
| 13.5 µM | Ac-[αAllylPro]D[tBuAla][B5(3)]D[TfeGA]AAFT[S8][Phe(2-Cl)][Bta]Q-NH2 (staple 1-4, 4-11) [I-930] |

The binders below were run against T4, full-length beta-Catenin (Uniprot ID …) (assay: fluorescence polarization competition; full-length beta-catenin with 5FAM-labeled TCF4 residues 10-53 probe as competitor).
Experimental: The plate was incubated protected from light for 60 minutes at 20° C. prior to read. Reads were performed on a CLARIOstar plate reader (BMG Labtech) in duplicate, and data were fitted to a 1:1 binding model with hill slope using an in-house script. All provided concentrations are final concentrations.

| IC50 | Binder |
| --- | --- |
| 0.035 µM | Ac-[αAllylPro]DI[B5(17)]DEAAFN[S8]F[Bta]Q-NH2 (staple 1-4, 4-11) [I-557] |
| 0.032 µM | Ac-[αAllylPro]DL[B5(4)]DEAAFN[S8]F[Bta]H-NH2 (staple 1-4, 4-11) [I-543] |
| 0.03 µM | B2 |
